Blank lines part the entries; values can stand above or below the compound they belong to. Where no end group is shown, it is not given here.
Tests used:
[1] = test system: HUVEC; assay: cAMP in primary human umbilical vein endothelial cells; assay type: cell-based; conditions: 15 min stimulation
Method: Primary human umbilical vein endothelial cells (HUVEC) were purchased from PromoCell (Heidelberg, Germany). HUVEC were cultured in 100 mm cell culture dishes and were seeded at 75,000 per well in 24-well plates at passage 5-7, for stimulation. Stimulation with Ang-(1-6) or C21 and the blockers was carried out as described above.
cAMP concentration in cell lysates was determined using Direct cAMP ELISA kit (Enzo Life Sciences Ltd., Exeter, United Kingdom). Briefly, wells of 96-well plate (Goat Anti-Rabbit IgG pre-coated) were neutralized with 50 μl of Neutralizing Reagent. Next, 100 μl of acetylated cAMP standard or cell lysate was added, followed by 50 μl of blue cAMP-Alkaline Phosphatase Conjugate and 50 μl of yellow EIA Rabbit Anti-cAMP antibody. The plate was then incubated on a shaker (˜400 rpm) at room temperature for 2 h. Next, the wells were aspirated and rinsed three times with Wash Buffer (1:10, Tris buffered saline containing detergents and sodium azide in deionized water). After the final wash, the plate was tapped against clean paper towel to remove any remaining Wash Buffer. […] The enzymatic reaction was stopped by adding 50 μl of Stop Solution, and the absorbance at 405 nm was measured immediately. The cAMP concentration was determined from non-linear standard curve using GraphPad Prism 6.0 software. […]

[2] = molecular target: T1, AT2 receptor (Homo sapiens, UniProt P50052); assay: cAMP in AT2-transfected HEK293 cells; assay type: cell-based; conditions: for intracellular cAMP production: AT2-transfected HEK293, 15 min stimulation
T1 construct: expressed in transfected cells; host or cells: HEK-293, transient transfection with PolyFect
T1 sequence (P50052 1-363): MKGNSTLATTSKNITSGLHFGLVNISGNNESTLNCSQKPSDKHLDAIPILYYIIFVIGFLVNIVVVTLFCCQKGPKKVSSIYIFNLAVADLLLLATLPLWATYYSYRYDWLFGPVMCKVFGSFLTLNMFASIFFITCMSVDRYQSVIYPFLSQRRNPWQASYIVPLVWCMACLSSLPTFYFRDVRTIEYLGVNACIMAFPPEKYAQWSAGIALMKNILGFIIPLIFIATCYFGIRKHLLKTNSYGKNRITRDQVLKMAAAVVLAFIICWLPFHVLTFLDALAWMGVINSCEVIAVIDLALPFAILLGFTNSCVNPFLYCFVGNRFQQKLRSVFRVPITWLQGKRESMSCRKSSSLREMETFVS
Method: Human embryonic kidney (HEK-293) cells were cultured in DMEM medium supplemented with FBS (10%), HEPES buffer (1%), sodium pyruvate (1%), and L-glutamine (1%) and maintained under standard conditions (5% CO2, 95% humidity and 37° C.). Cells were cultured in 100 mm cell culture dishes and seeded in 48-well plates at a density of 75,000 cells per well. The next day, HEK-293 cells were transfected using a transient transfection procedure following the manufacturer's instructions. Briefly, 150 ng of control plasmid pcDNA3.1 or a combination of 50 ng of pcDNA3.1 and 100 ng of expression vectors containing the cDNA for Mas, MrgD, AT1 or AT2, were mixed with serum-free medium and PolyFect transfection reagent. After 10 min incubation at room temperature, which allowed the complex formation, complete medium was added and the total volume was transferred into appropriate wells of the 48-well plate. The cells were incubated for 16-20 hrs. The next day, the medium was replaced by serum-free medium 1 hr before stimulation. After stimulation with A779, D-Pro, PD123319, forskolin (all 10^−6 M), or PTX (50 ng/ml), or SQ22536 (2×10^−6M) for 15 min, the solvent, Ang-(1-6) or C21 (all in the mentioned concentrations) were added for 15 min. Then, the cells were lysed by adding 180 μl/well of 0.1M hydrochloric acid with 0.1% Triton X-100, and the lysates were stored at −80° C. until cAMP measurement. The protein concentration was determined using Pierce BCA Protein Assay Kit according to the manufacturer's protocol (Thermo Fisher Scientific, Waltham, Mass., USA).
cAMP concentration in cell lysates was determined using Direct cAMP ELISA kit (Enzo Life Sciences Ltd., Exeter, United Kingdom). Briefly, wells of 96-well plate (Goat Anti-Rabbit IgG pre-coated) were neutralized with 50 μl of Neutralizing Reagent. Next, 100 μl of acetylated cAMP standard or cell lysate was added, followed by 50 μl of blue cAMP-Alkaline Phosphatase Conjugate and 50 μl of yellow EIA Rabbit Anti-cAMP antibody. The plate was then incubated on a shaker (˜400 rpm) at room temperature for 2 h. Next, the wells were aspirated and rinsed three times with Wash Buffer (1:10, Tris buffered saline containing detergents and sodium azide in deionized water). After the final wash, the plate was tapped against clean paper towel to remove any remaining Wash Buffer. To each well, 200 μl p-Nitrophenyl Phosphate Substrate Solution was added, and the plate was incubated for 1 h at room temperature. The enzymatic reaction was stopped by adding 50 μl of Stop Solution, and the absorbance at 405 nm was measured immediately. The cAMP concentration was determined from non-linear standard curve using GraphPad Prism 6.0 software.
The results are illustrated by FIG. 1A.
pcDNA-transfected HEK293 cells and AT2-transfected HEK293 cells were stimulated for 15 min with a range of concentrations (10^−16 to 10^−6 M) of Ang-(1-6). The results are illustrated by FIGS. 1B and 1C.
AT2-transfected HEK293 cells were stimulated for 15 min with a range of concentrations (10^−13 to 10^−6 M) of C21, Ang (1-4) and Ang (1-7) PBS and the concentration of cAMP was measured in accordance with the methodology provided. The results are illustrated by FIGS. 6 and 7.
AT2-transfected HEK293 cells were stimulated for 15 min with C21, Ang-(1-6) and a range of concentrations (10^−14 to 10^−7 M) of Ala^1-Ser^4-Ang-(1-6), and the concentration of cAMP was measured in accordance with the methodology provided.
AT2-transfected HEK293 cells were stimulated for 15 min with Ang-(1-6) and a range of concentrations (10^−15 to 10^−7 M) of Ser^4-Ang-(1-6) and the concentration of cAMP was measured in accordance with the methodology provided.

[3] = molecular target: T1, AT2 receptor; assay: Block of Ang-(1-6) mediated cAMP signal in AT2-transfected HEK293 cells; assay type: cell-based; conditions: Ang-(1-6) 10^−10 M, increasing antagonist concentrations
Method: Human embryonic kidney (HEK-293) cells were cultured in DMEM medium supplemented with FBS (10%), HEPES buffer (1%), sodium pyruvate (1%), and L-glutamine (1%) and maintained under standard conditions (5% CO2, 95% humidity and 37° C.). Cells were cultured in 100 mm cell culture dishes and seeded in 48-well plates at a density of 75,000 cells per well. The next day, HEK-293 cells were transfected using a transient transfection procedure following the manufacturer's instructions. […] The protein concentration was determined using Pierce BCA Protein Assay Kit according to the manufacturer's protocol (Thermo Fisher Scientific, Waltham, Mass., USA).
cAMP concentration in cell lysates was determined using Direct cAMP ELISA kit (Enzo Life Sciences Ltd., Exeter, United Kingdom). […] The enzymatic reaction was stopped by adding 50 μl of Stop Solution, and the absorbance at 405 nm was measured immediately. The cAMP concentration was determined from non-linear standard curve using GraphPad Prism 6.0 software.
Cells were stimulated for 15 min with (a) 10^−11 M and 10^−1° M Ang-(1-6), (b) Ala^1-Ang-(1-6) (10^−10 M) or (c) a range of concentrations (10^−12M to 10^−8M) of Ala^1-Ang (1-6) together with Ang-(1-6) at a concentration of 10^−10M. The concentration of cAMP was measured in accordance with the methodology provided.

[4] = Peptide degradation in mouse kidney membranes; assay type: in vitro ADME; conditions: after 15 minutes, compared to Ang-(1-7) and Ang II
Method: Peptides (10^−4M) were incubated with 45 μg of murine kidney membrane preparations and diluted with 50 mM Tris-HCl buffer pH 7.4 laced with 0.1% BSA to minimise adhesion of the peptide onto the tube walls. Incubations proceeded for the desired time, after which the reaction was stopped by addition of half volume of 350 mM HClO4. Samples were then centrifuged to remove any particulates prior to LCMS analysis.
Ang-(1-6) degradation in mouse kidney membranes over 30 minutes compared to Ang-(1-7) and Ang II. (FIG. 4A)

[5] = test system: Human kidney cancer A498 cells; assay: Colony formation assay; assay type: cell-based; conditions: daily treatment for 5 days
Method: Human kidney cancer A498 cells were seeded at 300 cells/well in a 6-well plate. The next day, cells were treated with various peptides daily. Each condition was run in triplicate. After 5 days of treatment, cells were washed once with PBS after media removal, stained with 0.5% crystal violet in 30% ethanol and 3% formaldehyde for 10 min at RT and washed with distilled water. Colonies were counted under the microscope.
Human renal cancer cells were treated with Ang-(1-6) or analogues and the effect on colony formation counted. Such cells are used for in vivo experiments in rodents when implanted subcutaneously or into the kidney to generate a rapidly forming and growing tumour, being leathal if untreated.

concentration at Emax (cAMP) ([2]; AT2-transfected HEK293): 10^−11 M
intracellular cAMP production [2]: increases intracellular cAMP production
increase in intracellular cAMP production compared with Ang (1-6) ([2]; same concentration (10^−11M)): greater increase
Compound: ARVSIH [Ala^1-Ser^4-Ang-(1-6), variant of Ang-(1-6) with Ala at position 1 and Ser at position 4]

AT2 stimulation relative to Ang (1-6) ([2]; AT2-transfected HEK293, 10^−15 to 10^−7 M): comparable to Ang (1-6)
intracellular cAMP production [2]: increases intracellular cAMP production
Compound: DRVSIH [Ser^4-Ang-(1-6), variant of Ang-(1-6) with Ser at position 4]

intracellular cAMP production [2]: do not increase intracellular cAMP
Compound: DRVY (Angiotensin-2; UniProt P01019 25-28, looked up, fragment) [Ang (1-4), angiotensin fragment 1-4, reference compound]

peptide degradation [4]: rapid
Compound: DRVYIH [Ang (1-6), DRVYIH]

intracellular cAMP production [2]: do not increase intracellular cAMP
Compound: DRVYIHP [Ang (1-7), reference compound]

Further lines, the compound ahead of its results:

Compound: CCCCOC(=O)NS(=O)(=O)c1sc(CC(C)C)cc1-c1ccc(Cn2ccnc2)cc1 [C21]
cAMP stimulation in primary endothelial cells (HUVEC) [1]: can stimulate such cells

Compound: ARVYIH [Ala^1-Ang-(1-6), variant of Ang-(1-6) with Ala at position 1, AT2 antagonist]
intracellular cAMP production [2]: no effect
block of cAMP-generating capacity of Ang-(1-6) [3]: completely blocked

Compound: RVSIH [Ser^4-Ang (2-6), fragment peptide 2-6 with Ser substitution]
number of colonies versus solvent (PBS) [5]: significant reduction of colonies

Compound: RVYIH [Ang (2-6), truncated version of Ang (1-6)]
number of colonies versus solvent (PBS) [5]: significant reduction of colonies

Reference: patent publication US20210238229A1, “PEPTIDE FOR DISEASE TREATMENT” (UNIVERSITY COLLEGE CORK - NATIONAL UNIVERSITY OF IRELAND, …, priority 2018, published 2021)
